Source: IntAct's records for PubMed 11932251

B1: Regulator of chromosome condensation (Homo sapiens), P18754 (parent)
chain: MSPKRIAKRRSPPADAIPKSKKVKVSHRSHSTEPGLVLTLGQGDVGQLGLGENVMERKKPALVSIPEDVVQAEAGGMHTVCLSKSGQVYSFGCNDEGALGRDTSVEGSEMVPGKVELQEKVVQVSAGDSHTAALTDDGRVFLWGSFRDNNGVIGLLEPMKKSMVPVQVQLDVPVVKVASGNDHLVMLTADGDLYTLGCGEQGQLGRVPELFANRGGRQGLERLLVPKCVMLKSRGSRGHVRFQDAFCGAYFTFAISHEGHVYGFGLSNYHQLGTPGTESCFIPQNLTSFKNSTKSWVGFSGGQHHTVCMDSEGKAYSLGRAEYGRLGLGEGAEEKSIPTLISRLPAVSSVACGASVGYAVTKDGRVFAWGMGTNYQLGTGQDEDAWSPVEMMGKQLENRVVLSVSSGGQHTVLLVKDKEQS
partner: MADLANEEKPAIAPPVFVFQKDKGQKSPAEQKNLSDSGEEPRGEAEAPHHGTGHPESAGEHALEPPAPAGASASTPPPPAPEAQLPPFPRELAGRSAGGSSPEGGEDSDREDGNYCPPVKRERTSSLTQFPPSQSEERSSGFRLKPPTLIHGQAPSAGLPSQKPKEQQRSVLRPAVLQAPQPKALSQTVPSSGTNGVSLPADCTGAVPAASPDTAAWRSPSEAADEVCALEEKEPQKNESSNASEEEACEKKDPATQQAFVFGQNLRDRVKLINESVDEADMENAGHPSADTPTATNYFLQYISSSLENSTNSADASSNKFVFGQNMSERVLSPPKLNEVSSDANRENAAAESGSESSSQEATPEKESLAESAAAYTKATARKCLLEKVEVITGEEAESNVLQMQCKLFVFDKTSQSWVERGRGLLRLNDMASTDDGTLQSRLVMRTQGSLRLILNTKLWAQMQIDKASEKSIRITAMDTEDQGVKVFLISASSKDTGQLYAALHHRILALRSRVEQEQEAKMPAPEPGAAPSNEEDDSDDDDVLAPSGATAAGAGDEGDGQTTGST

Variants of: B1
Settings: with ranb3_human RANBP3, Q9H6Z4

Row | effect of a mutation on the interaction | Variant
1 | disrupting interaction | MSPKRIAKRRSPPADAIPKSKKVKVSHRSHSTEPGLVLTLGQGDVGQLGLGENVMERKKPALVSIPEDVVQAEAGGMHTVCLSKSGQVYSFGCNDEGALGRDTSVEGSEMVPGKVELQEKVVQVSAGDSHTAALTDDGRVFLWGSFRDNNGVIGLLEPMKKSMVPVQVQLDVPVVKVASGNAHLVMLTADGDLYTLGCGEQGQLGRVPELFANRGGRQGLERLLVPKCVMLKSRGSRGHVRFQDAFCGAYFTFAISHEGHVYGFGLSNYHQLGTPGTESCFIPQNLTSFKNSTKSWVGFSGGQHHTVCMDSEGKAYSLGRAEYGRLGLGEGAEEKSIPTLISRLPAVSSVACGASVGYAVTKDGRVFAWGMGTNYQLGTGQDEDAWSPVEMMGKQLENRVVLSVSSGGQHTVLLVKDKEQS [D182A]
